# In publication PMC10400579, “FDW028, a novel FUT8 inhibitor, impels lysosomal proteolysis of B7-H3 via chaperone-mediated autophagy pathway and exhibits potent efficacy against metastatic colorectal cancer” (Cell Death & Disease, 2023):
# Legend:
# [1] = immunofluorescence colocalization, Pearson's R; conditions: glycan changed form; control: control siRNA / untreated cells
# [2] = immunoblot of B7-H3, SW480 and HCT-8; conditions: glycan changed form; control: control siRNA / untreated cells
# [3] = CHX chase, B7-H3 remaining by immunoblot; conditions: glycan changed form; control: control siRNA
# [4] = cell surface biotinylation, membrane-fraction immunoblot; conditions: glycan changed form; control: control siRNA
protein,measurement,setting,value
B7-H3 (CD276): FDW028 (FUT8 inhibitor) (protein) parent chain: MLRRRGSPGMGVHVGAALGALWFCLTGALEVQVPEDPVVALVGTDATLCCSFSPEPGFSLAQLNLIWQLTDTKQLVHSFAEGQDQGSAYANRTALFPDLLAQGNASLRLQRVRVADEGSFTCFVSIRDFGSAAVSLQVAAPYSKPSMTLEPNKDLRPGDTVTITCSSYQGYPEAEVFWQDGQGVPLTGNVTTSQMANEQGLFDVHSILRVVLGANGTYSCLVRNPVLQQDAHSSVTITPQRSPTGAVEVQVPEDPVVALVGTDATLRCSFSPEPGFSLAQLNLIWQLTDTKQLVHSFTEGRDQGSAYANRTALFPDLLAQGNASLRLQRVRVADEGSFTCFVSIRDFGSAAVSLQVAAPYSKPSMTLEPNKDLRPGDTVTITCSSYRGYPEAEVFWQDGQGVPLTGNVTTSQMANEQGLFDVHSVLRVVLGANGTYSCLVRNPVLQQDAHGSVTITGQPMTFPPEALWVTVGLSVCLIALLVALAFVCWRKIKQSCEEENAGAEDQDGEGEGSKTALQPLKHSDSKEDDGQEIA,localisation_or_trafficking,[1],increases
same,expression_or_secretion,[2],decreases
B7-H3 (CD276): FUT8 siRNA (protein) parent chain: MLRRRGSPGMGVHVGAALGALWFCLTGALEVQVPEDPVVALVGTDATLCCSFSPEPGFSLAQLNLIWQLTDTKQLVHSFAEGQDQGSAYANRTALFPDLLAQGNASLRLQRVRVADEGSFTCFVSIRDFGSAAVSLQVAAPYSKPSMTLEPNKDLRPGDTVTITCSSYQGYPEAEVFWQDGQGVPLTGNVTTSQMANEQGLFDVHSILRVVLGANGTYSCLVRNPVLQQDAHSSVTITPQRSPTGAVEVQVPEDPVVALVGTDATLRCSFSPEPGFSLAQLNLIWQLTDTKQLVHSFTEGRDQGSAYANRTALFPDLLAQGNASLRLQRVRVADEGSFTCFVSIRDFGSAAVSLQVAAPYSKPSMTLEPNKDLRPGDTVTITCSSYRGYPEAEVFWQDGQGVPLTGNVTTSQMANEQGLFDVHSVLRVVLGANGTYSCLVRNPVLQQDAHGSVTITGQPMTFPPEALWVTVGLSVCLIALLVALAFVCWRKIKQSCEEENAGAEDQDGEGEGSKTALQPLKHSDSKEDDGQEIA,localisation_or_trafficking,[1],increases
same,expression_or_secretion,[2],decreases
same,degradation_or_half_life,[3],decreases
same,expression_or_secretion,[4],decreases
